# Earlier results, collected in patent US20040162315A1, “Use of compounds for treating conditions resulting from injury to the corneal nerve after LASIK and other ocular surgeries or trauma” (priority 2002, published 2004).
# B1: BDNF: neurotrophin family peptide, TrkB receptor-selective ligand (protein, UniProt P23560 19-247, looked up)
# Neurotrophic factor BDNF …: APMKEANIRGQGGLAYPGVRTHGTLESVNGPKAGSRGLTSLADTFEHVIEELLDEDQKVRPNEENNKDADLYTSRVMLSSQVPLEPPLLFLLEEYKNYLDAANMSMRVRRHSDPARRGELSVCDSISEWVTAADKKTAVDMSGGTVTVLEKVPVSKGQLKQYFYETKCNPMGYTKEGCRGIDKRHWNSQCRTTQSYVRALTMDSKKRIGWRFIRIDTSCVCTLTIKRGR
# Tested on: axotomized ocular nerves
# Details: single intravitreal injection of 5 μg, administered during the first five days after injury
molecule,measurement,value
B1,death of the axotomized ocular nerves,prevented the death of the axotomized ocular nerves
